Laboratory results: article PMC10769878

Target: phi3T_93 (Bacillus subtilis phage phi3T)
Experiment: SEC-MALS; 20 µl at 1 mg/ml on Shodex KW-402.5-4F, 100 mM HEPES pH 7.5, 250 mM NaCl, 0.3 ml/min

phi3T_93 (natural protein)
stoichiometry N: 2
